Experimental data reported in US20220227882A1 (TRUSTEES OF TUFTS COLLEGE, published 2022).

Biological target: T1, A462S (Homo sapiens, UniProt P78325)
T1 construct: expressed on HEK293 cells; also called human ADAM8 point mutant A462S
T1 sequence (ADAM8, looked up): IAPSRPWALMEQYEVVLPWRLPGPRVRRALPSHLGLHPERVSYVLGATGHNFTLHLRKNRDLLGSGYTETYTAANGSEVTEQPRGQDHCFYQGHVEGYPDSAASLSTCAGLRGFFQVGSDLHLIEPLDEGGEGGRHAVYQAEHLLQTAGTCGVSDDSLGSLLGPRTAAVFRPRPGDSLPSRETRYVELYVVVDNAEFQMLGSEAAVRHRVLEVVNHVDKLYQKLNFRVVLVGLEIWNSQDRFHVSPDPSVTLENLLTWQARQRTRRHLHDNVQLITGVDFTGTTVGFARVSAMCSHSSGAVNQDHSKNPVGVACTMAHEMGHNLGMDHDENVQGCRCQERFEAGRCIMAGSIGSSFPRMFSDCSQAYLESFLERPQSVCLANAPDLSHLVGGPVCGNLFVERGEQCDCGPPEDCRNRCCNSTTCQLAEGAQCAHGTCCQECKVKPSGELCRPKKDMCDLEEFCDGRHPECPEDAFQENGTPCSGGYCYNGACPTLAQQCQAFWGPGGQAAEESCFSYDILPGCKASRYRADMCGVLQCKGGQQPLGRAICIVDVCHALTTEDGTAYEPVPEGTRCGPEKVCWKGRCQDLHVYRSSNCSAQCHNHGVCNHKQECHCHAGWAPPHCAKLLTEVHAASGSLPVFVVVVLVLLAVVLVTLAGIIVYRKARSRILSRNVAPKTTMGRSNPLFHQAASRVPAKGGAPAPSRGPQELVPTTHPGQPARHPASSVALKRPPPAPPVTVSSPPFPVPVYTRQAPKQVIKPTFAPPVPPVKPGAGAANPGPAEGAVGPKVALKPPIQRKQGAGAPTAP
Assay: high-throughput flow cytometry, HEK293 cells with mutant ADAM8, high stringency; range in parentheses
Procedure, shortened: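 HEK293 cells expressing WT or alanine-mutant ADAM8 were stained for 60 min with ADP2 Fab (0.50 μg/ml) or ADP13 Fab (5.00 μg/ml) in PBS with 10% goat serum under high-stringency conditions. Detection used an Alexa Fluor 488 secondary, with mean cellular fluorescence measured by high-throughput flow cytometry in duplicate.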

Binding Reactivity (% WT): 50.1 % WT
B1: ADP2 Fab (Fab, V domains shown)
VH: EVKLVESGGGLVQPGGSLSLSCAASGFSFPDYYMSWVRQPPGKALEWLGFIRDSANGYTTEYIASVKGRFTFSRDNSQSILYLQMNALRAEDSATYYCARYSRYYGMDYWGQGTSVTVSS
VL: SIVMTQTPKILLVSAGDRVTITCKASQTVNYDVAWYQQKPGQSPKPVIYFASNRYTGVPDRFTGSGFGTDFTFTISTVQAEDLAVYFCQQDYSAPWTFGGGTKLEIK
